Data as given in publication PMC5716276 (The Journal of Cell Biology, 2017).

Target: T1, Strep lyspersin (subunit of recombinant BORCΔBLOC-1) (UniProt Q96GS4 1-357)
T1 sequence: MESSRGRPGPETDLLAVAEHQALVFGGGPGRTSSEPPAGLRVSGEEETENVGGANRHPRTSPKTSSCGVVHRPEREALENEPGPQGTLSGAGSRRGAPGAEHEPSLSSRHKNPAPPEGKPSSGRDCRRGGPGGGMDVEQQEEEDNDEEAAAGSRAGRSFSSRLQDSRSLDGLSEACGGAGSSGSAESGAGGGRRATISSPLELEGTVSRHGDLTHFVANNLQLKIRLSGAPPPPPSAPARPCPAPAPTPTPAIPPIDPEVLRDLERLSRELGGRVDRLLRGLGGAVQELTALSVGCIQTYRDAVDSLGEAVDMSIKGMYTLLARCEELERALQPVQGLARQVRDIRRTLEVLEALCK
Experiment: cross-linking

B1: KxDL1 (subunit of recombinant BORCΔBLOC-1) (natural protein)
chain: MDLPDSASRVFCGRILSMVNTDDVNAIILAQKNMLDRFEKTNEMLLNFNNLSSARLQQMSERFLHHTRTLVEMKRDLDSIFRRIRTLKGKLARQHPEAFSHIPEASFLEEEDEDPIPPSTTTTIATSEQSTGSCDTSPDTVSPSLSPGFEDLSHVQPGSPAINGRSQTDDEEMTGE
**Q.** Does B1 bind?
**A.** Result: binds
